Columns and labels:
[1] = molecular target: mouse TMEM106B (mouse) (UniProt Q80X71); test: flow cytometry, HEK293 cells transiently transfected with murine TMEM106B
[2] = molecular target: cynomolgus (cyno) TMEM106B (cynomolgus); test: flow cytometry, HEK293 cells transiently transfected with cyno TMEM106B
[3] = molecular target: human TMEM106B (human) (UniProt Q9NUM4); test: flow cytometry, HEK293 cells transiently transfected with human TMEM106B

| fold-change in binding over parental HEK293 cells [1] [fold] | Binder | further results |
| --- | --- | --- |
| 1.86 | TM-79 (antibody, V domains shown) VH: EVQLQQSGPELVKPGASVKMSCKASGYTFTNYVMHWLKQKPGQGLEWIAHITPHNDGTKYNEKFKGKATLTSDRSSSTAYMELNSLTSEDSAIYYCARSGQFGRGDYFHYWGQGTTVTVSS VL: DIVLTQSPASLAVSLGQRATISCRASKSVSTSGSIYIHWYQQKPGQPPKLLIYLTSNLESGVPARFSGSGSGTDFTLNIHPVEEEDAATYYCQHSGELPWTFGGGARLEIK |  |
|  | TM-72 (antibody, V domains shown) VH: QVQLQQPGAELVKPGTSVKLSCKASGSTFTNYWMHWVMQRPGQGLEWIGNIDPSDSDTHYNQKFKDRAKLTVDKSSSTAYMQLSGLTSEDSAVYYCARSRGGYYDYGEAMDYWGQGTSVTVSS VL: DIVMTQAAPSVPVTPGESVSISCRSSKSLLHTNGNTYLFWFIQRPGQSPHLLIYRKSNLASGVPDRFSGSGSGTAFTLRISRVEAEDVGVYYCMQHLEYPFTFGSGTKLEIK | fold-change in binding over parental HEK293 cells [2]: 1.78 fold |
| 1.97 | TM-90 (antibody, V domains shown) VH: QVHLQQSGPELVKPGASVKLSCKASGYPFTSYDINWVKQRPGQGLEWIGWIYPRDGNAKYNEKFKGKATLTVDTSSSTAYMELHSLTSENSAVYFCARVSDYHGGYGMDYWGQGTSVTVSS VL: DVLMTQTPLSLPVSLGDQASISCRSSQSFVHGNGNTYLEWYLQKPGQSPKLLIYKVSHRFSGVPDRFSGSGSGTDFTLKITRVEAEDLGVYYCFQNSHVPHTFGGGTKLEIK |  |
| 1.86 | TM-77 (antibody, V domains shown) VH: QIQLQQSGAELVRPGASVKLSCKASGYTFTDYEMHWVKQTPVHGLEWIGVIDPETGGTAYNQMFKGKATLTADKSSSTAYMDLRSLTSEDSAVYYCVKYGIEGYWGQGTTLTVSS VL: DVVMTQIPLTLSVTLGQPASISCKSSQSLFHSNGKTYLNWLLQRPGQSPKLLIYMVSKLESGVPDRFSGSGSGTDFTLKISRVEAEDLGVYYCLQVTHFPLTFGAGTKLELK |  |
|  | TM-82 (antibody, V domains shown) VH: QVQLQQSGAELVRPGTSVRVSCKASGYAFTNYLIEWIKQRPGQGLEWIGVINPGSGITDYSEKFKGKARLTADKSSSTAYMQLSSLTSDDSAVYFCTRSPFITTVVADYWGQGTTVTVSS VL: DVVVTQTPLSLPVSFGDQVSISCRSSQSLANTYGNTYLSWYLHTPGQSPQLLIFGISNRFSGVPDRFSGSGSGTDFTLKISTIKPEDLGVYYCLQGTHPPRTFGGGTKLEMK | fold-change in binding over parental HEK293 cells [3]: 1.99 fold |
